Test results from article PMC12748787.
pKd: −log10 of the molar value.

Molecular target: Trx-CaV1.2 JBM (mouse) (UniProt Q01815)
Test: ITC

Trx-CaV1.2 JBM (mouse), sequence (Q01815 1647-1777): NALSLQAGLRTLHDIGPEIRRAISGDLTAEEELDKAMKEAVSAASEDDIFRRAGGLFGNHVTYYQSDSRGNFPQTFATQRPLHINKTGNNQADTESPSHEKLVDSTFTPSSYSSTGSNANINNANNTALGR

Substance	fold reduction in binding affinity against the wild type [fold]	other results
JPH2 NT A399S (A405S in mouse JPH2) (from UniProt Q9ET78 1-440) (domain or fragment)	3	
JPH2 NT E85K (from UniProt Q9ET78 1-440) (domain or fragment)	3	
JR-JBM chimera R160E/F165S (from UniProt Q9ET78 1-155; Q9ET78 168-440) (domain or fragment)		pKd: 4.38
MBP-JPH2 NT S165F (mouse) (from UniProt Q9ET78 1-440) (domain or fragment)		fold decrease in binding affinity against the wild type: > 5 fold
